± gives the standard deviation of the averaged measurements.
Assay: total protein half-life in vivo (active degradation + dilution); higher = more stable protein
[1] = E. coli NCM3722 delta-clpP delta-lon delta-hslV, growth: N-lim chemostat, doubling time 6 h
[2] = E. coli NCM3722 delta-clpP, growth: N-lim chemostat, doubling time 6 h
[3] = E. coli NCM3722 delta-hslV, growth: N-lim chemostat, doubling time 6 h
[4] = E. coli NCM3722 delta-lon, growth: N-lim chemostat, doubling time 6 h
[5] = E. coli NCM3722 delta-smpB, growth: N-lim chemostat, doubling time 6 h
[6] = wild type E. coli NCM3722, growth: C-lim chemostat, doubling time 3 h
[7] = wild type E. coli NCM3722, growth: C-lim chemostat, doubling time 6 h
[8] = wild type E. coli NCM3722, growth: C-lim chemostat, doubling time 12 h
[9] = wild type E. coli NCM3722, growth: N-lim chemostat, doubling time 6 h
[10] = wild type E. coli NCM3722, growth: N-lim chemostat, doubling time 12 h
[11] = wild type E. coli NCM3722, growth: P-lim chemostat, doubling time 6 h
[12] = wild type E. coli NCM3722, growth: P-lim chemostat, doubling time 12 h

Sequence	total protein half-life in vivo [1]	total protein half-life in vivo [2]	total protein half-life in vivo [3]	total protein half-life in vivo [4]	total protein half-life in vivo [5]	total protein half-life in vivo [6]	total protein half-life in vivo [7]	total protein half-life in vivo [8]	total protein half-life in vivo [9]	total protein half-life in vivo [10]	total protein half-life in vivo [11]	total protein half-life in vivo [12]
MTDKLTSLRQYTTVVADTGDIAAMKLYQPQDATTNPSLILNAAQIPEYRKLIDDAVAWAKQQSNDRAQQIVDATDKLAVNIGLEILKLVPGRISTEVDARLSYDTEASIAKAKRLIKLYNDAGISNDRILIKLASTWQGIRAAEQLEKEGINCNLTLLFSFAQARACAEAGVFLISPFVGRILDWYKANTDKKEYAPAEDPGVVSVSEIYQYYKEHGYETVVMGASFRNIGEILELAGCDRLTIAPALLKELAESEGAIERKLSYTGEVKARPARITESEFLWQHNQDPMAVDKLAEGIRKFAIDQEKLEKMIGDLL [P0A870]	5.35 ± 0.57 h	5.12 ± 0.34 h	5.35 ± 0.39 h	5.6 ± 0.23 h	5.04 ± 0.11 h	3.448 ± 0.0017 h	5.81 ± 0.19 h	11.1 ± 1.2 h	5.14 ± 0.23 h	9.23 ± 0.13 h	6.18 ± 0.083 h	13.7 ± 0.78 h
MTDLPDSTRWQLWIVAFGFFMQSLDTTIVNTALPSMAQSLGESPLHMHMVIVSYVLTVAVMLPASGWLADKVGVRNIFFTAIVLFTLGSLFCALSGTLNELLLARALQGVGGAMMVPVGRLTVMKIVPREQYMAAMTFVTLPGQVGPLLGPALGGLLVEYASWHWIFLINIPVGIIGAIATLLLMPNYTMQTRRFDLSGFLLLAVGMAVLTLALDGSKGTGLSPLTIAGLVAVGVVALVLYLLHARNNNRALFSLKLFRTRTFSLGLAGSFAGRIGSGMLPFMTPVFLQIGLGFSPFHAGLMMIPMVLGSMGMKRIVVQVVNRFGYRRVLVATTLGLSLVTLLFMTTALLGWYYVLPFVLFLQGMVNSTRFSSMNTLTLKDLPDNLASSGNSLLSMIMQLSMSIGVTIAGLLLGLFGSQHVSVDSGTTQTVFMYTWLSMALIIALPAFIFARVPNDTHQNVAISRRKRSAQ	–	–	–	–	–	–	–	–	–	–	–	15.7 h
MTDNNTALKKAGLKVTLPRLKILEVLQEPDNHHVSAEDLYKRLIDMGEEIGLATVYRVLNQFDDAGIVTRHNFEGGKSVFELTQQHHHDHLICLDCGKVIEFSDDSIEARQREIAAKHGIRLTNHSLYLYGHCAEGDCREDEHAHEGK [P0A9A9]	6.49 ± 0.92 h	5.31 ± 0.6 h	4.58 ± 1.7 h	6.38 ± 0.37 h	3.6 ± 0.55 h	2.35 ± 0.2 h	4.31 ± 0.14 h	8.38 ± 1.9 h	4.58 ± 0.81 h	11.3 ± 3.6 h	5.27 ± 0.16 h	11.5 ± 1.6 h
MTDYAISKKSKRSLWIPILVFITLAACASAGYSYWHSHQVAADDKAQQRVVPSPVFYALDTFTVNLGDADRVLYIGITLRLKDEATRSRLSEYLPEVRSRLLLLFSRQDAAVLATEEGKKNLIAEIKTTLSTPLVAGQPKQDVTDVLYTAFILR [P0ABX8]	–	–	–	–	–	1.72 ± 0.4 h	2.16 ± 0.27 h	3 ± 0.22 h	–	–	–	–
MTEAMKITLSTQPADARWGEKATYSINNDGITLHLNGADDLGLIQRAARKIDGLGIKHVQLSGEGWDADRCWAFWQGYKAPKGTRKVVWPDLDDAQRQELDNRLMIIDWVRDTINAPAEELGPSQLAQRAVDLISNVAGDRVTYRITKGEDLREQGYMGLHTVGRGSERSPVLLALDYNPTGDKEAPVYACLVGKGITFDSGGYSIKQTAFMDSMKSDMGGAATVTGALAFAITRGLNKRVKLFLCCADNLISGNAFKLGDIITYRNGKKVEVMNTDAEGRLVLADGLIDASAQKPEMIIDAATLTGAAKTALGNDYHALFSFDDALAGRLLASAAQENEPFWRLPLAEFHRSQLPSNFAELNNTGSAAYPAGASTAAGFLSHFVENYQQGWLHIDCSATYRKAPVEQWSAGATGLGVRTIANLLTA	5.81 ± 0.29 h	5.46 ± 0.11 h	5.706 ± 0.054 h	5.758 ± 0.022 h	5.22 ± 0.19 h	3.45 ± 0.34 h	6.53 ± 0.15 h	10.4 ± 0.37 h	5.61 ± 0.15 h	10.4 ± 1.1 h	5.543 ± 0.044 h	12.5 ± 0.4 h
MTEAQRHQILLEMLAQLGFVTVEKVVERLGISPATARRDINKLDESGKLKKVRNGAEAITQQRPRWTPMNLHQAQNHDEKVRIAKAASQLVNPGESVVINCGSTAFLLGREMCGKPVQIITNYLPLANYLIDQEHDSVIIMGGQYNKSQSITLSPQGSENSLYAGHWMFTSGKGLTAEGLYKTDMLTAMAEQKMLSVVGKLVVLVDSSKIGERAGMLFSRADQIDMLITGKNANPEILQQLEAQGVSILRV [P0A9W0]	5.74 ± 0.06 h	5.84 ± 0.28 h	6.01 ± 0.41 h	5.66 ± 0.8 h	5.95 ± 0.36 h	3.08 ± 0.11 h	6 ± 0.48 h	10.6 ± 1.7 h	5.68 ± 0.2 h	10.9 ± 0.72 h	6.75 ± 1.5 h	13.3 ± 0.25 h
MTEKKYIVALDQGTTSSRAVVMDHDANIISVSQREFEQIYPKPGWVEHDPMEIWATQSSTLVEVLAKADISSDQIAAIGITNQRETTIVWEKETGKPIYNAIVWQCRRTAEICEHLKRDGLEDYIRSNTGLVIDPYFSGTKVKWILDHVEGSRERARRGELLFGTVDTWLIWKMTQGRVHVTDYTNASRTMLFNIHTLDWDDKMLEVLDIPREMLPEVRRSSEVYGQTNIGGKGGTRIPISGIAGDQQAALFGQLCVKEGMAKNTYGTGCFMLMNTGEKAVKSENGLLTTIACGPTGEVNYALEGAVFMAGASIQWLRDEMKLINDAYDSEYFATKVQNTNGVYVVPAFTGLGAPYWDPYARGAIFGLTRGVNANHIIRATLESIAYQTRDVLEAMQADSGIRLHALRVDGGAVANNFLMQFQSDILGTRVERPEVREVTALGAAYLAGLAVGFWQNLDELQEKAVIEREFRPGIETTERNYRYAGWKKAVKRAMAWEEHDE [P0A6F3]	–	6.74 ± 0.14 h	6.32 ± 0.39 h	–	5.64 ± 0.067 h	3.28 ± 0.085 h	5.398 ± 0.033 h	9.61 ± 1.5 h	5.983 ± 0.059 h	12.7 ± 0.32 h	6.31 ± 0.66 h	13 ± 0.85 h
MTELAQLQASAEQAAALLKAMSHPKRLLILCMLSGSPGTSAGELTRITGLSASATSQHLARMRDEGLIDSQRDAQRILYSIKNEAVNAIIATLKNVYCP	–	–	–	–	–	–	–	–	–	–	–	9.02 h
MTEPHVAVLSQVQQFLDRQHGLYIDGRPGPAQSEKRLAIFDPATGQEIASTADANEADVDNAVMSAWRAFVSRRWAGRLPAERERILLRFADLVEQHSEELAQLETLEQGKSIAISRAFEVGCTLNWMRYTAGLTTKIAGKTLDLSIPLPQGARYQAWTRKEPVGVVAGIVPWNFPLMIGMWKVMPALAAGCSIVIKPSETTPLTMLRVAELASEAGIPDGVFNVVTGSGAVCGAALTSHPHVAKISFTGSTATGKGIARTAADHLTRVTLELGGKNPAIVLKDADPQWVIEGLMTGSFLNQGQVCAASSRIYIEAPLFDTLVSGFEQAVKSLQVGPGMSPVAQINPLVSRAHCDKVCSFLDDAQAQQAELIRGSNGPAGEGYYVAPTLVVNPDAKLRLTREEVFGPVVNLVRVADGEEALQLANDTEYGLTASVWTQNLSQALEYSDRLQAGTVWVNSHTLIDANLPFGGMKQSGTGRDFGPDWLDGWCETKSVCVRY	4.33 h	–	–	–	–	3.12 ± 0.38 h	5.23 ± 0.96 h	8.67 ± 0.33 h	–	–	5.34 ± 0.17 h	10.3 ± 0.53 h
